Patent CN116333117A (LAITEKANG SUZHOU BIOPHARMACEUTICAL CO LTD, dated 2023)

Assays:
[1] = target: T1, HER2 (human, UniProt P04626 23-652, limits assumed); test: ELISA, coated HER2, antibody in 3-fold dilutions
T1 construct: also called ErbB2

[2] = target: T2, HER3 (human, UniProt P21860 20-643, limits assumed); test: ELISA, coated HER3, antibody in 3-fold dilutions
T2 construct: also called ErbB3

[3] = target: T3, HER4 (human, UniProt Q15303 26-649, limits assumed); test: ELISA, coated HER4, antibody in 3-fold dilutions
T3 construct: also called ErbB4
T3 sequence (looked up): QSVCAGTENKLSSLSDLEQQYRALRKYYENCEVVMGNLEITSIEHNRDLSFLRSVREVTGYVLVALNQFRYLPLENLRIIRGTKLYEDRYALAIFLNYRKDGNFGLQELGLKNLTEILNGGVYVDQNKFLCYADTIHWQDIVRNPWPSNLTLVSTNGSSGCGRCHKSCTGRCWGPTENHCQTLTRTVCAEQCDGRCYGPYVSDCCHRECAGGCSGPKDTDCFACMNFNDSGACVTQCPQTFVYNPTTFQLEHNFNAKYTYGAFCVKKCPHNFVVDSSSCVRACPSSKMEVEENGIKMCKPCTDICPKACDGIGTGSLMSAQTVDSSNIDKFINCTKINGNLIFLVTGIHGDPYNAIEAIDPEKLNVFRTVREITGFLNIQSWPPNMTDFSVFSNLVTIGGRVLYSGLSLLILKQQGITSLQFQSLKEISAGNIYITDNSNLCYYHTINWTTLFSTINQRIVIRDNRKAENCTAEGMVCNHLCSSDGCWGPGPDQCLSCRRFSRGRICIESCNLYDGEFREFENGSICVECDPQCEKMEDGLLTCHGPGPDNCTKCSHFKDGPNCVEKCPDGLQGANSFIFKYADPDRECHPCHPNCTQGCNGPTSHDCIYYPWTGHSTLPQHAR

[4] = target: T4, hEGFR/ECD-his (自制的C-末端具有his标签的人EGFR胞外域蛋白全长) (human, UniProt P00533 25-645); test: ELISA, coated hEGFR/ECD-his 1 ug/mL, anti-hIgG Fc-HRP
T4 construct: extracellular domain; Home-made antigen; also called hEGFR/EDC-his; hEGFR/EGFR-his; not shown: C-terminal his tag

[5] = target: T4, hEGFR/ECD-his …; test: BLI (ForteBio Qke), antibody on Protein A probes, hEGFR in solution from 20 ug/mL in 1:2 dilutions

T2 sequence (P21860 20-643 limits assumed): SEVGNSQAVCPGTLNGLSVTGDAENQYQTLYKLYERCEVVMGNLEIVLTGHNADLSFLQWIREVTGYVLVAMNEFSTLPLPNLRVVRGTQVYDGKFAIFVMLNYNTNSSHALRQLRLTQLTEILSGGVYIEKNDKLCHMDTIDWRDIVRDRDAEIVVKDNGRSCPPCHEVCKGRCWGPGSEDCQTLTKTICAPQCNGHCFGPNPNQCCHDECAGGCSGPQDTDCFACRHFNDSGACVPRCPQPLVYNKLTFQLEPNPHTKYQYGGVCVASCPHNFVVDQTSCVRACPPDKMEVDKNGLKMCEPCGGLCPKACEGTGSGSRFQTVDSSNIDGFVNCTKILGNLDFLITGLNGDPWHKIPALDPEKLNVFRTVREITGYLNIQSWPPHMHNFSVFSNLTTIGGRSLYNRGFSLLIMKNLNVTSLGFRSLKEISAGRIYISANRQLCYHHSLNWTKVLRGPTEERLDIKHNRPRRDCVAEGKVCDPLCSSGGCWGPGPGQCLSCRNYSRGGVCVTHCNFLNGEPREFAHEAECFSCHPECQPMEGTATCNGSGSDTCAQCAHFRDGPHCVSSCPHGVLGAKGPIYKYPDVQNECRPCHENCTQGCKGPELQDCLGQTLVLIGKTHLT

B1: mouse anibody1129 (mAb1129) (antibody, V domains shown)
VH: DVMLVESGGGLVKPGGSLKLSCAASGFAFSNYDMSWVRQTPEKRLEWVAYISSGGDITYYLDTVKGRFTISRDNAKNTLYLQMSSLKSEDTAMYYCARSHYGYYGDTMDYWGQGTSVTVSS
VL: DVVMTQTPLSLPVSLGDQASISCRSSQSLVHSNGNTYLHWYLQKPGQSPKLLIYKVSNRFSGVPDRFSGSGSGTDFTLKISRVEAEDLGVYFCSQSTHVPPTFGGGTKLEIK
notes: also called 抗EGFR抗体mAb1129; 小鼠抗EGFR抗体; not shown: human kappa light chain constant region
Does B1 bind [1]?
Result: no binding (tested: 起始浓度为2μg/mL)

Does B1 bind [2]?
Result: no binding (tested: 起始浓度为2μg/mL)

Does B1 bind [3]?
Result: no binding (tested: 起始浓度为2μg/mL)

And the EC50 [4]?
The EC50 was ~0.0199 µg/mL.

What about the Kd [5] of the same binder?
Its Kd is ~2.03 nM.
